Test results: the Immune Epitope Database (IEDB)
One block for each sequence: values may come before it.

Legend:
[1] = target: HLA-A*24:02; assay: IEDB peptide-MHC binding, purified MHC/competitive/fluorescence; ≥ and ≤ were set here for values at or beyond the usual limits of such assays
[2] = target: HLA-B*48:01; assay: IEDB peptide-MHC binding, purified MHC/direct/fluorescence; filed as Kd, often an IC50 or EC50 that approximates it; ≥ and ≤ were set here for values at or beyond the usual limits of such assays
[3] = target: HLA-B*07:02; assay: IEDB peptide-MHC binding, purified MHC/competitive/radioactivity; filed as Kd, often an IC50 or EC50 that approximates it; ≥ and ≤ were set here for values at or beyond the usual limits of such assays
[4] = target: HLA-B*51:01; assay: as above; settings: source organism: Dengue virus 2 Jamaica/1409/1983
[5] = target: HLA-A*68:02; assay: as above
[6] = target: HLA-A*02:01; assay: as above
[7] = target: HLA-A*02:02; assay: as above
[8] = target: HLA-A*02:06; assay: as above
[9] = target: HLA-A*02:03; assay: as above
[10] = target: HLA-B*15:01; assay: as above
[11] = target: HLA-A*30:02; assay: as above; settings: source organism: Dengue virus 3 Martinique/1243/1999
[12] = target: HLA-A*01:01; assay: as above; settings: source organism: Dengue virus 3 Martinique/1243/1999
[13] = target: HLA-B*15:01; assay: IEDB peptide-MHC binding, purified MHC/competitive/fluorescence; filed as Kd, often an IC50 or EC50 that approximates it; ≥ and ≤ were set here for values at or beyond the usual limits of such assays
[14] = target: HLA-A*23:01; assay: IEDB peptide-MHC binding, purified MHC/competitive/radioactivity; filed as Kd, often an IC50 or EC50 that approximates it; ≥ and ≤ were set here for values at or beyond the usual limits of such assays
[15] = target: HLA-A*32:01; assay: as above
[16] = target: HLA-B*35:01; assay: as above
[17] = target: HLA-B*53:01; assay: as above
[18] = target: HLA-A*02:01; assay: IEDB peptide-MHC binding, purified MHC/competitive/fluorescence; filed as Kd, often an IC50 or EC50 that approximates it; ≥ and ≤ were set here for values at or beyond the usual limits of such assays; settings: source organism: Salmonella enterica subsp. enterica serovar Typhi
[19] = target: HLA-B*08:01; assay: IEDB peptide-MHC binding, purified MHC/competitive/radioactivity; filed as Kd, often an IC50 or EC50 that approximates it; ≥ and ≤ were set here for values at or beyond the usual limits of such assays; settings: source organism: Dengue virus 1 Nauru/West Pac/1974
[20] = target: HLA-A*30:01; assay: as above
[21] = target: HLA-A*02:01; assay: IEDB peptide-MHC binding, purified MHC/competitive/fluorescence; ≥ and ≤ were set here for values at or beyond the usual limits of such assays
[22] = target: HLA-B*40:01; assay: IEDB peptide-MHC binding, purified MHC/direct/fluorescence; filed as Kd, often an IC50 or EC50 that approximates it; ≥ and ≤ were set here for values at or beyond the usual limits of such assays; settings: source organism: Salmonella enterica
[23] = target: HLA-B*18:01; assay: as above
[24] = target: HLA-A*26:01; assay: IEDB peptide-MHC binding, purified MHC/competitive/fluorescence; filed as Kd, often an IC50 or EC50 that approximates it; ≥ and ≤ were set here for values at or beyond the usual limits of such assays
[25] = target: HLA-A*26:01; assay: IEDB peptide-MHC binding, purified MHC/direct/fluorescence; filed as Kd, often an IC50 or EC50 that approximates it; ≥ and ≤ were set here for values at or beyond the usual limits of such assays
[26] = target: HLA-A*24:02; assay: IEDB peptide-MHC binding, purified MHC/competitive/radioactivity; filed as Kd, often an IC50 or EC50 that approximates it; ≥ and ≤ were set here for values at or beyond the usual limits of such assays; settings: source organism: Dengue virus 1 Brazil/97-11/1997
[27] = target: HLA-B*27:05; assay: IEDB peptide-MHC binding, purified MHC/direct/fluorescence; filed as Kd, often an IC50 or EC50 that approximates it; ≥ and ≤ were set here for values at or beyond the usual limits of such assays; settings: source organism: Yellow fever virus
[28] = target: HLA-B*58:01; assay: as above; settings: source organism: Yellow fever virus
[29] = target: HLA-A*03:01; assay: as above; settings: source organism: Yellow fever virus
[30] = target: HLA-A*31:01; assay: as above; settings: source organism: Yellow fever virus
[31] = target: HLA-A*11:01; assay: as above; settings: source organism: Yellow fever virus
[32] = target: HLA-A*01:01; assay: as above; settings: source organism: Yellow fever virus
[33] = target: HLA-B*07:02; assay: as above; settings: source organism: Yellow fever virus 17D
[34] = target: HLA-A*02:01; assay: as above; settings: source organism: Yellow fever virus
[35] = target: HLA-B*46:01; assay: as above; settings: source organism: Yellow fever virus
[36] = target: HLA-B*57:01; assay: as above; settings: source organism: Yellow fever virus
[37] = target: HLA-B*44:02; assay: as above; settings: source organism: Yellow fever virus
[38] = source organism: Zaire ebolavirus
[39] = source organism: Dengue virus 2 Jamaica/1409/1983
[40] = source organism: Hepacivirus hominis
[41] = source organism: Lassa virus Josiah
[42] = source organism: Vaccinia virus WR
[43] = source organism: Dengue virus 4 Philippines/H241/1956
[44] = source organism: Trypanosoma cruzi
[45] = source organism: Dengue virus 3 Martinique/1243/1999
[46] = source organism: Sudan ebolavirus
[47] = source organism: Dengue virus 1 Nauru/West Pac/1974
[48] = source organism: Dengue virus 1 Brazil/97-11/1997
[49] = source organism: Bacillus anthracis str. A0488

Sequence: EGVVAFLIL
IC50 [1, 38]: ≥ 80300 nM

Sequence: AEFNEDGLL
Kd ([2]; source organism: Listeria monocytogenes serotype 4b str. H7858): ≥ 20000 nM

Sequence: QPATLRKYCI
Kd [3, 39]: 660 nM | Kd [4]: ≥ 26100 nM

Kd ([5]; source organism: Homo sapiens): ≥ 63800 nM | Kd ([6]; source organism: Homo sapiens): 12200 nM
Sequence: ALALEEKRRL

Sequence: KLSGLGFNAV
Kd [7, 40]: 5.4 nM | Kd [5, 40]: 6110 nM | Kd [8, 40]: 24.5 nM | Kd [6, 40]: 19.3 nM | Kd [9, 40]: 2.8 nM

Sequence: RLLGTFTWT
Kd [7, 41]: 323 nM | Kd [5, 41]: ≥ 5000 nM | Kd [8, 41]: 137 nM | Kd [6, 41]: 33.8 nM | Kd [9, 41]: 104 nM

Sequence: LKVFLPNPA
IC50 ([1]; source organism: Variola virus): 20300 nM

Sequence: VMTKWCAPF
Kd [10, 42]: 1.86 nM

Sequence: LVKRFSTGLF
Kd [10, 43]: 256 nM

Sequence: KYYIKNIGN
IC50 ([1]; source organism: Vaccinia virus): ≥ 101000 nM

Sequence: EIAKYGHSF
Kd [10, 42]: 57.6 nM

Sequence: QAVNNLVEL
Kd [6, 41]: 4570 nM

Sequence: GLLPSLLLLG
Kd [7, 44]: 261 nM | Kd [5, 44]: 3750 nM | Kd [8, 44]: 127 nM | Kd [6, 44]: 120 nM | Kd [9, 44]: 137 nM

Sequence: AYQGDYKLF
IC50 [1, 38]: 540 nM

Sequence: ISKIPGGAMY
Kd [10, 45]: 136 nM | Kd [11]: 9.35 nM | Kd [12]: ≥ 23800 nM

Sequence: LTVVPLMAF
Kd ([13]; source organism: Bacillus cereus G9241): 147 nM

Sequence: MLRVYNNTA
Kd [10, 42]: 188 nM

Sequence: FAISYCRAF
Kd [10, 42]: 76.1 nM

Sequence: IYTSGKRSN
IC50 [1, 38]: 6370 nM

Sequence: KLFMALVAF
Kd [14, 39]: 4740 nM | Kd [15, 39]: 37.8 nM | Kd [10, 39]: 198 nM

Sequence: GAQHSTTLF
IC50 [1, 46]: 42100 nM

Sequence: LAMTDTTPF
Kd [16, 43]: 1.67 nM | Kd [10, 43]: 3.92 nM | Kd [17, 43]: 94.3 nM

Sequence: KQSSFLSSL
Kd ([13]; source organism: Salmonella enterica subsp. enterica serovar Typhi): 94.1 nM | Kd [18]: 38.1 nM

Sequence: LTYFCFVAL
Kd [15, 42]: 615 nM | Kd [10, 42]: 28.5 nM

Sequence: RARNRVSTV
Kd [19]: 9.01 nM | Kd [3, 47]: 2.62 nM | Kd [20, 47]: 23 nM

Sequence: SMRKTDWLPM
Kd [10, 45]: 134 nM

Sequence: LQIFSNSVG
Kd [10, 42]: 2.07 nM

Sequence: SLFIESSICL
Kd [7, 42]: 99.2 nM | Kd [8, 42]: 982 nM | Kd [6, 42]: 2 nM | Kd [9, 42]: 293 nM

Sequence: LLFILFYFA
Kd [10, 42]: 242 nM

Sequence: FSAWISHRP
IC50 ([21]; source organism: Variola virus): 38100 nM | IC50 ([1]; source organism: Variola virus): 517 nM

Sequence: TTQALQLFL
IC50 [21, 46]: 10600 nM | IC50 [1, 46]: 6610 nM

Sequence: KQERGKSLLF
Kd [10, 48]: 118 nM

Sequence: FPQSNAPIM
Kd [16, 39]: 13600 nM | Kd [17, 39]: 1.8 nM | Kd [3, 39]: 12.1 nM | Kd [4]: 632 nM

Sequence: YPVWLTKHL
Kd [22]: 2930 nM | Kd ([23]; source organism: Salmonella enterica): 2150 nM

Sequence: LSRNSTHEM
Kd [10, 45]: 39.7 nM | Kd [20, 45]: 106 nM

Sequence: MSIVCIVAA
Kd [10, 42]: 3070 nM

Sequence: LYLVDYGLV
IC50 [21, 42]: ≥ 89800 nM | IC50 [1, 42]: 212 nM

Sequence: HIVYAVPLM
Kd [24, 49]: 8.2 nM

Sequence: SIIGILHLI
Kd ([24]; source organism: Influenza A virus (A/Memphis/1/1978(H1N1))): 13000 nM

Sequence: GMNEVTKAL
Kd ([2]; source organism: Giardia lamblia ATCC 50803): 359 nM

Sequence: ESFDLAGLF
Kd ([25]; source organism: Mammarenavirus juninense): 1.3 nM

Sequence: VLTGGVTLFF
Kd [10, 48]: 194 nM | Kd [26]: 1610 nM

Sequence: QARFSGLLI
IC50 [1, 38]: 16700 nM

Sequence: GLITCKAFG
IC50 [21, 42]: 60500 nM | IC50 [1, 42]: ≥ 168000 nM

Sequence: MMCYFLTATP
Kd [6, 42]: 18 nM

Sequence: SSARYDVAL
Kd [27]: ≥ 20000 nM | Kd [28]: ≥ 20000 nM | Kd [29]: ≥ 20000 nM | Kd [30]: ≥ 20000 nM | Kd [31]: ≥ 20000 nM | Kd [32]: ≥ 20000 nM | Kd [33]: ≥ 20000 nM | Kd [34]: ≥ 20000 nM | Kd [35]: ≥ 20000 nM | Kd ([23]; source organism: Yellow fever virus): ≥ 20000 nM | Kd [36]: ≥ 20000 nM | Kd [37]: ≥ 20000 nM

Sequence: NTARLMAGA
Kd ([25]; source organism: Mycobacterium tuberculosis): ≥ 20000 nM

Sequence: VLNGAPYSY
Kd [13, 49]: 53.6 nM

Sequence: MMLKLLTDF
Kd [14, 47]: 357 nM | Kd [15, 47]: 56.7 nM | Kd [10, 47]: 11.5 nM
